Test results published in US20090175866A1, “TREATMENT OF B-CELL MALIGNANCIES” (priority 2004, published 2009).
Changes are numbered by the printed parent chain. Each block holds one binder with its values, some of them ahead of it.

What was measured:
[1] = target: FGFR3 (as measured by BIAcore, Table 1) (UniProt P22607); assay: BIAcore (receptor not given)
[2] = target: FGFR3 (as measured by BIAcore, Table 1) (UniProt P22607); assay: BIAcore
[3] = target: FGFR3-G394D expressed on B9 cells, P22607; assay: cell-based or functional assay
Sequence of FGFR3-G394D expressed on B9 cells, P22607 (P22607 23-806, stated change not applied): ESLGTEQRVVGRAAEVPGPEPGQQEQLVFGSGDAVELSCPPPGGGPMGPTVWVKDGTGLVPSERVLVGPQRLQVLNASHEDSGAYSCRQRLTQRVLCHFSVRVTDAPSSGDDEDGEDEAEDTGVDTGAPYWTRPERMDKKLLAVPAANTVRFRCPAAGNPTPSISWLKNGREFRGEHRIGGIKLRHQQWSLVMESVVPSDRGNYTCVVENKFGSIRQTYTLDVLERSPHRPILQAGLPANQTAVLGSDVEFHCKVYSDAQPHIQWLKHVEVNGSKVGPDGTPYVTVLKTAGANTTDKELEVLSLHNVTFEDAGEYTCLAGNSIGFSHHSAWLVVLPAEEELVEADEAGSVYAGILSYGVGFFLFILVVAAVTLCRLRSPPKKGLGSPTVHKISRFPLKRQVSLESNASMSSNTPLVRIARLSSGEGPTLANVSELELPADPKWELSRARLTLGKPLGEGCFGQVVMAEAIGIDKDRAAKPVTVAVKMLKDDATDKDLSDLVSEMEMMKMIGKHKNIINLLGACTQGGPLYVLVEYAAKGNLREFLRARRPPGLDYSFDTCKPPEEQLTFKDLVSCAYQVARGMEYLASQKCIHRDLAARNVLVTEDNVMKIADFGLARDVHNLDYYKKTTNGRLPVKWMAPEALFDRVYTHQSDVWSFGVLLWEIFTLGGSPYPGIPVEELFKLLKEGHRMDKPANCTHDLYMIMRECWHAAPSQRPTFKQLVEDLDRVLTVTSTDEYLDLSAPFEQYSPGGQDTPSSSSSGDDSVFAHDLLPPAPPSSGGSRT

B1: PRO-026 (Fab, V domains shown)
VH: QVQLVQSGAEVKKPGASVKVSCKASGYTFTSYYMHWVRQAPGQGLEWMGWINPNSGGTNYAQKFQGRVTMTRDTSISTAYMELSSLRSEDTAVYYCARGYWYAYFTYINYGYFDNWGQGTLVTVSS
VL: DIALTQPASVSGSPGQSITISCTGTSSDVGGYNYVSWYQQHPGKAPKLMIYDVSNRPSGVSNRFSGSKSGNTASLTISGLQAEDEADYYCQSYDNNSDVVFGGGTKLTVLG
koff [1]: 0.0005 s⁻¹
Kd [2]: 4 nM

B3: PRO-002 (Fab, V domains shown)
VH: QVQLVQSGAEVKKPGASVKVSCKASGYTFTSYYMHWVRQAPGQGLEWMGWINPNSGGTNYAQKFQGRVTMTRDTSISTAYMELSSLRSEDTAVYYCARDFLGYEFDYWGQGTLVTVSS
VL: DIELTQPPSVSVAPGQTARISCSGDALGDKYASWYQQKPGQAPVLVIYDDSDRPSGIPERFSGSNSGNTATLTISGTQAEDEADYYCQSYDYSADYVFGGGTKLTVLG
koff [1]: 0.02 s⁻¹
Kd [2]: 37 nM

B5: PRO-012 (Fab, V domains shown)
VH: QVQLKESGPALVKPTQTLTLTCTFSGFSLSTSGVGVGWIRQPPGKALEWLALIDWDDDKYYSTSLKTRLTISKDTSKNQVVLTMTNMDPVDTATYYCARYHSWYEMGYYGSTVGYMFDYWGQGTLVTVSS
VL: DIELTQPPSVSVAPGQTARISCSGDALGDKYASWYQQKPGQAPVLVIYDDSDRPSGIPERFSGSNSGNTATLTISGTQAEDEADYYCQSYDFDFAVFGGGTKLTVLG
koff [1]: 0.0023 s⁻¹
Kd [2]: 14 nM

B7: PRO-001 Fab (Fab, V domains shown)
VH: QVQLQQSGPGLVKPSQTLSLTCAISGDSVSSNSAAWNWIRQSPGRGLEWLGRTYYRSKWYNDYAVSVKSRITINPDTSKNQFSLQLNSVTPEDTAVYYCARSYYPDFDYWGQGTLVTVSS
VL: DIELTQPPSVSVAPGQTARISCSGDALGDKYASWYQQKPGQAPVLVIYDDSDRPSGIPERFSGSNSGNTATLTISGTQAEDEADYYCQSYDGPDLWVFGGGTKLTVLGQ
IC50 of FGF-stimulated growth of B9 cells expressing G394D-FGFR3 [3]: 3 µg/mL

Further lines, results first:

koff [1]: 0.00074 s⁻¹
Kd [2]: 2.9 nM
B2: PRO-055 (Fab, V domains shown)
VH: QVQLVQSGAEVKKPGASVKVSCKASGYTFTSYYMHWVRQAPGQGLEWMGWINPNSGGTNYAQKFQGRVTMTRDTSISTAYMELSSLRSEDTAVYYCARSMNSTMYWYLRRVLFDHWGQGTLVTVSS
VL: B1 VL with N95M, N96Y, S97N, D98Y, V99I

koff [1]: 0.002 s⁻¹
Kd [2]: 3.7 nM
B4: PRO-054 (Fab, V domains shown)
VH: QVQLVQSGAEVKKPGASVKVSCKASGYTFTSYYMHWVRQAPGQGLEWMGWINPNSGGTNYAQKFQGRVTMTRDTSISTAYMELSSLRSEDTAVYYCARNMAYTNYQYVNMPHFDYWGQGTLVTVSS
VL: B5 VL with F92Y, D93F, F94K, A95L

koff [1]: 0.0014 s⁻¹
Kd [2]: 6 nM
B6: PRO-029 (Fab, V domains shown)
VH: QVQLVQSGAEVKKPGASVKVSCKASGYTFTSYYMHWVRQAPGQGLEWMGWINPNSGGTNYAQKFQGRVTMTRDTSISTAYMELSSLRSEDTAVYYCARTWQYSYFYYLDGGYYFDIWGQGTLVTVSS
VL: DIVLTQSPATLSLSPGERATLSCRASQSVSSSYLAWYQQKPGQAPRLLIYGASSRATGVPARFSGSGSGTDFTLTISSLEPEDFATYYCQQTNNAPVTFGQGTKVEIKR
